Columns and labels:
[1] = biological target: human 4-1BB on T cells (human) (UniProt Q07011)
[2] = biological target: human 4-1BB on T cells (human) (UniProt Q07011); assay: flow cytometry, normal (non-activated) human CD4+ T cells
[3] = biological target: human 4-1BB on T cells (human) (UniProt Q07011); assay: flow cytometry, normal (non-activated) human CD8+ T cells
[4] = biological target: human 4-1BB on T cells (human) (UniProt Q07011); assay: flow cytometry, PBL CD4+ T cells, rheumatoid arthritis patient 2
[5] = biological target: human 4-1BB on T cells (human) (UniProt Q07011); assay: flow cytometry, PBL CD8+ T cells, rheumatoid arthritis patient 2
[6] = biological target: human 4-1BB on T cells (human) (UniProt Q07011); assay: flow cytometry, human CD4+ T cells activated with Con A for 24 hours
[7] = biological target: human 4-1BB on T cells (human) (UniProt Q07011); assay: flow cytometry, human CD8+ T cells activated with Con A for 24 hours
[8] = biological target: human 4-1BB on T cells (human) (UniProt Q07011); assay: flow cytometry, PBL CD4+ T cells, rheumatoid arthritis patient
[9] = biological target: human 4-1BB on T cells (human) (UniProt Q07011); assay: flow cytometry, PBL CD8+ T cells, rheumatoid arthritis patient
[10] = biological target: human 4-1BB on T cells (human) (UniProt Q07011); assay: flow cytometry, synovial lymphocyte CD4+ T cells, rheumatoid arthritis patient 2
[11] = biological target: human 4-1BB on T cells (human) (UniProt Q07011); assay: flow cytometry, synovial lymphocyte CD8+ T cells, rheumatoid arthritis patient 2
[12] = biological target: human 4-1BB on T cells (human) (UniProt Q07011); assay: flow cytometry, synovial lymphocyte CD4+ T cells, rheumatoid arthritis patient
[13] = biological target: human 4-1BB on T cells (human) (UniProt Q07011); assay: flow cytometry, synovial lymphocyte CD8+ T cells, rheumatoid arthritis patient

suppression rate (%) of one way-allogeneic mixed lymphocyte reaction (3H-thymidine uptake) [1]: 67%
% of CD4+ T cells showing positive responses [2]: 17%
% of CD8+ T cells showing positive responses [3]: 36%
% of T Cells Showing Reactivity with 4B4-1-1 [4]: 20%
% of T Cells Showing Reactivity with 4B4-1-1 [5]: 43.5%
% of CD4+ T cells showing positive responses [6]: 72%
% of CD8+ T cells showing positive responses [7]: 89%
% of T Cells Showing Reactivity with 4B4-1-1 [8]: 2.2%
% of T Cells Showing Reactivity with 4B4-1-1 [9]: 12.7%
% of T Cells Showing Reactivity with 4B4-1-1 [10]: 38%
% of T Cells Showing Reactivity with 4B4-1-1 [11]: 42.4%
% of T Cells Showing Reactivity with 4B4-1-1 [12]: 11.3%
% of T Cells Showing Reactivity with 4B4-1-1 [13]: 68.1%
Substance: monoclonal antibody 4B4-1-1
